# In publication PMC7954794 (2021):
# B1: S. cerevisiae Abp1 (full length; SH3 domain 535-592 mutated) / Hua2 (parent complex)
# chain 1: MALEPIDYTTHSREIDAEYLKIVRGSDPDTTWLIISPNAKKEYEPESTGSSFHDFLQLFDETKVQYGLARVSPPGSDVEKIIIIGWCPDSAPLKTRASFAANFAAVANNLFKGYHVQVTARDEDDLDENELLMKISNAAGARYSIQTSSKQQGKASTPPVKKSFTPSKSPAPVSKKEPVKTPSPAPAAKISSRVNDNNDDDDWNEPELKERDFDQAPLKPNQSSYKPIGKIDLQKVIAEEKAKEDPRLVQKPTAAGSKIDPSSDIANLKNESKLKRDSEFNSFLGTTKPPSMTESSLKNDDDKVIKGFRNEKSPAQLWAERKAKQNSGNAETKAEAPKPEVPEDEPEGEPDVKDLKSKFEGLAASEKEEEEMENKFAPPPKKSEPTIISPKPFSKPQEPVKAEEAEQPKTDYKKIGNPLPGMHIEADNEEEPEENDDDWDDDEDEAAQPPLPSRNVASGAPVQKEEPEQEEIAPSLPSRNSIPAPKQEEAPEQAPEEEIEEEAEEAAPQLPSRSSAAPPPPPRRATPEKKPKENPWATAEYDYDAAEDNELTFVENDKIINIEFVDDDWWLGELEKDGSKGLFPSNYVSLGN
# chain 2: MQQTKFGKMYLDHDSVVEYSEDEIVEADRITLGYKKRLSMIENQMRHLLEDFSLDVQQIEPILADLQKYYDAFLQLLQKRNKSLQCKRSTHQPVPSPMNSQTSTNAKVNLSGKLMKFQLNSVQKFDEENILRILQNKIEFEHYFQIDKGKKQKVLLLAVYQCLNGPTRLHKVLNIEGIIHNNSIRTILGKQVSSSKWTVFLYDVKLVLLAHRQDVPNLETSKMIVRYGDLFPCALYFKDHTAY
# Variants of: B1
# Test: DHFR protein-fragment complementation in yeast (Abp1-DHFR F[1,2] x partner-DHFR F[3]), deep mutational scanning, second methotrexate selection vs reference; S. cerevisiae, DHFR-PCA selection in liquid with methotrexate at 30 C, two 72 h selections (the score uses the second); reference = the pre-selection culture
row,screen value,Variant
1,"0.502 DMS score: mean over two replicates of log2(f_test/f_ref + 0.5)/ln 2, minus the synonymous-codon median (not a log2 …",chain 1 V554T
2,"-0.0296 DMS score: mean over two replicates of log2(f_test/f_ref + 0.5)/ln 2, minus the synonymous-codon median (not a log2 …",chain 1 V554I
3,"-0.15 DMS score: mean over two replicates of log2(f_test/f_ref + 0.5)/ln 2, minus the synonymous-codon median (not a log2 …",chain 1 V554W
4,"-0.425 DMS score: mean over two replicates of log2(f_test/f_ref + 0.5)/ln 2, minus the synonymous-codon median (not a log2 …",chain 1 V565Y
5,"-0.833 DMS score: mean over two replicates of log2(f_test/f_ref + 0.5)/ln 2, minus the synonymous-codon median (not a log2 …",chain 1 V565S
6,"-1.83 DMS score: mean over two replicates of log2(f_test/f_ref + 0.5)/ln 2, minus the synonymous-codon median (not a log2 …",chain 1 V565M
7,"-1.23 DMS score: mean over two replicates of log2(f_test/f_ref + 0.5)/ln 2, minus the synonymous-codon median (not a log2 …",chain 1 V565L
8,"-2.9 DMS score: mean over two replicates of log2(f_test/f_ref + 0.5)/ln 2, minus the synonymous-codon median (not a log2 …",chain 1 V565K
9,"-0.156 DMS score: mean over two replicates of log2(f_test/f_ref + 0.5)/ln 2, minus the synonymous-codon median (not a log2 …",chain 1 V565D
10,"-1.03 DMS score: mean over two replicates of log2(f_test/f_ref + 0.5)/ln 2, minus the synonymous-codon median (not a log2 …",chain 1 L574V
11,"-0.568 DMS score: mean over two replicates of log2(f_test/f_ref + 0.5)/ln 2, minus the synonymous-codon median (not a log2 …",chain 1 L574M
12,"0.584 DMS score: mean over two replicates of log2(f_test/f_ref + 0.5)/ln 2, minus the synonymous-codon median (not a log2 …",chain 1 L574K
13,"0.641 DMS score: mean over two replicates of log2(f_test/f_ref + 0.5)/ln 2, minus the synonymous-codon median (not a log2 …",chain 1 L574R
14,"-0.317 DMS score: mean over two replicates of log2(f_test/f_ref + 0.5)/ln 2, minus the synonymous-codon median (not a log2 …",chain 1 E575V
15,"0.336 DMS score: mean over two replicates of log2(f_test/f_ref + 0.5)/ln 2, minus the synonymous-codon median (not a log2 …",chain 1 E575Q
16,"-0.949 DMS score: mean over two replicates of log2(f_test/f_ref + 0.5)/ln 2, minus the synonymous-codon median (not a log2 …",chain 1 E575W
17,"-0.328 DMS score: mean over two replicates of log2(f_test/f_ref + 0.5)/ln 2, minus the synonymous-codon median (not a log2 …",chain 1 E575I
18,"-0.913 DMS score: mean over two replicates of log2(f_test/f_ref + 0.5)/ln 2, minus the synonymous-codon median (not a log2 …",chain 1 N561K
19,"-0.0924 DMS score: mean over two replicates of log2(f_test/f_ref + 0.5)/ln 2, minus the synonymous-codon median (not a log2 …",chain 1 D548F
20,"0.431 DMS score: mean over two replicates of log2(f_test/f_ref + 0.5)/ln 2, minus the synonymous-codon median (not a log2 …",chain 1 D548S
21,"-0.357 DMS score: mean over two replicates of log2(f_test/f_ref + 0.5)/ln 2, minus the synonymous-codon median (not a log2 …",chain 1 D548E
22,"-1.06 DMS score: mean over two replicates of log2(f_test/f_ref + 0.5)/ln 2, minus the synonymous-codon median (not a log2 …",chain 1 D548R
23,"0.0348 DMS score: mean over two replicates of log2(f_test/f_ref + 0.5)/ln 2, minus the synonymous-codon median (not a log2 …",chain 1 W536Y
24,"-0.449 DMS score: mean over two replicates of log2(f_test/f_ref + 0.5)/ln 2, minus the synonymous-codon median (not a log2 …",chain 1 W536C
25,"-0.538 DMS score: mean over two replicates of log2(f_test/f_ref + 0.5)/ln 2, minus the synonymous-codon median (not a log2 …",chain 1 W536Q

row,screen value,Variant
1,"0.21 DMS score: mean over two replicates of log2(f_test/f_ref + 0.5)/ln 2, minus the synonymous-codon median (not a log2 …",chain 1 I562V
2,"0.62 DMS score: mean over two replicates of log2(f_test/f_ref + 0.5)/ln 2, minus the synonymous-codon median (not a log2 …",chain 1 W569F
3,"-1.91 DMS score: mean over two replicates of log2(f_test/f_ref + 0.5)/ln 2, minus the synonymous-codon median (not a log2 …",chain 1 Y541N
4,"-1.01 DMS score: mean over two replicates of log2(f_test/f_ref + 0.5)/ln 2, minus the synonymous-codon median (not a log2 …",chain 1 Y541H
5,"-1.48 DMS score: mean over two replicates of log2(f_test/f_ref + 0.5)/ln 2, minus the synonymous-codon median (not a log2 …",chain 1 Y541E
6,"-1.27 DMS score: mean over two replicates of log2(f_test/f_ref + 0.5)/ln 2, minus the synonymous-codon median (not a log2 …",chain 1 N549Y
7,"1.33 DMS score: mean over two replicates of log2(f_test/f_ref + 0.5)/ln 2, minus the synonymous-codon median (not a log2 …",chain 1 N549G
8,"2.13 DMS score: mean over two replicates of log2(f_test/f_ref + 0.5)/ln 2, minus the synonymous-codon median (not a log2 …",chain 1 N549A
9,"-1.02 DMS score: mean over two replicates of log2(f_test/f_ref + 0.5)/ln 2, minus the synonymous-codon median (not a log2 …",chain 1 N549R
10,"0.106 DMS score: mean over two replicates of log2(f_test/f_ref + 0.5)/ln 2, minus the synonymous-codon median (not a log2 …",chain 1 N549H
11,"-0.0243 DMS score: mean over two replicates of log2(f_test/f_ref + 0.5)/ln 2, minus the synonymous-codon median (not a log2 …",chain 1 A545T
12,"-0.621 DMS score: mean over two replicates of log2(f_test/f_ref + 0.5)/ln 2, minus the synonymous-codon median (not a log2 …",chain 1 A545C
13,"-0.103 DMS score: mean over two replicates of log2(f_test/f_ref + 0.5)/ln 2, minus the synonymous-codon median (not a log2 …",chain 1 A545R
14,"0.0984 DMS score: mean over two replicates of log2(f_test/f_ref + 0.5)/ln 2, minus the synonymous-codon median (not a log2 …",chain 1 A545S
15,"-1.77 DMS score: mean over two replicates of log2(f_test/f_ref + 0.5)/ln 2, minus the synonymous-codon median (not a log2 …",chain 1 L582R
16,"-1.44 DMS score: mean over two replicates of log2(f_test/f_ref + 0.5)/ln 2, minus the synonymous-codon median (not a log2 …",chain 1 L582I
17,"0.141 DMS score: mean over two replicates of log2(f_test/f_ref + 0.5)/ln 2, minus the synonymous-codon median (not a log2 …",chain 1 L582W
18,"-2.64 DMS score: mean over two replicates of log2(f_test/f_ref + 0.5)/ln 2, minus the synonymous-codon median (not a log2 …",chain 1 E547T
19,"-0.584 DMS score: mean over two replicates of log2(f_test/f_ref + 0.5)/ln 2, minus the synonymous-codon median (not a log2 …",chain 1 E547L
20,"-1.94 DMS score: mean over two replicates of log2(f_test/f_ref + 0.5)/ln 2, minus the synonymous-codon median (not a log2 …",chain 1 E547N
21,"-0.281 DMS score: mean over two replicates of log2(f_test/f_ref + 0.5)/ln 2, minus the synonymous-codon median (not a log2 …",chain 1 E547D
22,"0.763 DMS score: mean over two replicates of log2(f_test/f_ref + 0.5)/ln 2, minus the synonymous-codon median (not a log2 …",chain 1 D544L
23,"0.497 DMS score: mean over two replicates of log2(f_test/f_ref + 0.5)/ln 2, minus the synonymous-codon median (not a log2 …",chain 1 D544A
24,"-0.1 DMS score: mean over two replicates of log2(f_test/f_ref + 0.5)/ln 2, minus the synonymous-codon median (not a log2 …",chain 1 D544E
25,"-0.178 DMS score: mean over two replicates of log2(f_test/f_ref + 0.5)/ln 2, minus the synonymous-codon median (not a log2 …",chain 1 D544G

row,screen value,Variant
1,"-2.81 DMS score: mean over two replicates of log2(f_test/f_ref + 0.5)/ln 2, minus the synonymous-codon median (not a log2 …",chain 1 Y587R
2,"-0.177 DMS score: mean over two replicates of log2(f_test/f_ref + 0.5)/ln 2, minus the synonymous-codon median (not a log2 …",chain 1 L571C
3,"-1.06 DMS score: mean over two replicates of log2(f_test/f_ref + 0.5)/ln 2, minus the synonymous-codon median (not a log2 …",chain 1 L571R
4,"-0.179 DMS score: mean over two replicates of log2(f_test/f_ref + 0.5)/ln 2, minus the synonymous-codon median (not a log2 …",chain 1 L571Q
5,"-0.576 DMS score: mean over two replicates of log2(f_test/f_ref + 0.5)/ln 2, minus the synonymous-codon median (not a log2 …",chain 1 L571D
6,"0.855 DMS score: mean over two replicates of log2(f_test/f_ref + 0.5)/ln 2, minus the synonymous-codon median (not a log2 …",chain 1 N592Q
7,"0.212 DMS score: mean over two replicates of log2(f_test/f_ref + 0.5)/ln 2, minus the synonymous-codon median (not a log2 …",chain 1 N592F
8,"-1.31 DMS score: mean over two replicates of log2(f_test/f_ref + 0.5)/ln 2, minus the synonymous-codon median (not a log2 …",chain 1 N592H
9,"0.019 DMS score: mean over two replicates of log2(f_test/f_ref + 0.5)/ln 2, minus the synonymous-codon median (not a log2 …",chain 1 N592M
10,"-0.398 DMS score: mean over two replicates of log2(f_test/f_ref + 0.5)/ln 2, minus the synonymous-codon median (not a log2 …",chain 1 N592D
11,"0.35 DMS score: mean over two replicates of log2(f_test/f_ref + 0.5)/ln 2, minus the synonymous-codon median (not a log2 …",chain 1 N592T
12,"-2.94 DMS score: mean over two replicates of log2(f_test/f_ref + 0.5)/ln 2, minus the synonymous-codon median (not a log2 …",chain 1 D566Q
13,"-2.66 DMS score: mean over two replicates of log2(f_test/f_ref + 0.5)/ln 2, minus the synonymous-codon median (not a log2 …",chain 1 D566G
14,"-2.64 DMS score: mean over two replicates of log2(f_test/f_ref + 0.5)/ln 2, minus the synonymous-codon median (not a log2 …",chain 1 D566A
15,"-1.08 DMS score: mean over two replicates of log2(f_test/f_ref + 0.5)/ln 2, minus the synonymous-codon median (not a log2 …",chain 1 E563A
16,"-0.477 DMS score: mean over two replicates of log2(f_test/f_ref + 0.5)/ln 2, minus the synonymous-codon median (not a log2 …",chain 1 E563V
17,"-1.2 DMS score: mean over two replicates of log2(f_test/f_ref + 0.5)/ln 2, minus the synonymous-codon median (not a log2 …",chain 1 E563T
18,"-1.57 DMS score: mean over two replicates of log2(f_test/f_ref + 0.5)/ln 2, minus the synonymous-codon median (not a log2 …",chain 1 E563I
19,"0.457 DMS score: mean over two replicates of log2(f_test/f_ref + 0.5)/ln 2, minus the synonymous-codon median (not a log2 …",chain 1 K580R
20,"-0.331 DMS score: mean over two replicates of log2(f_test/f_ref + 0.5)/ln 2, minus the synonymous-codon median (not a log2 …",chain 1 K580A
21,"-0.129 DMS score: mean over two replicates of log2(f_test/f_ref + 0.5)/ln 2, minus the synonymous-codon median (not a log2 …",chain 1 K580H
22,"-0.619 DMS score: mean over two replicates of log2(f_test/f_ref + 0.5)/ln 2, minus the synonymous-codon median (not a log2 …",chain 1 K580M
23,"0.0627 DMS score: mean over two replicates of log2(f_test/f_ref + 0.5)/ln 2, minus the synonymous-codon median (not a log2 …",chain 1 K580V
24,"-0.907 DMS score: mean over two replicates of log2(f_test/f_ref + 0.5)/ln 2, minus the synonymous-codon median (not a log2 …",chain 1 K580L
25,"-0.165 DMS score: mean over two replicates of log2(f_test/f_ref + 0.5)/ln 2, minus the synonymous-codon median (not a log2 …",chain 1 K580I
